Measurements as given in paper PMC9882608, “Structure of an endogenous mycobacterial MCE lipid transporter” (Research Square, 2023).

Target: the molecule itself
Test: cryo-EM structure

B1: MceG-GFP (MceG, MSMEG_1366, chromosomally tagged with GFP at its C-terminus) (enzyme, UniProt A0QS64 1-360, looked up)
chain: MGVQIDVTGLSKSFGSSKIWEDVTMSIPAGEVSVLLGPSGTGKSVFLKSLIGLLRPERGSIVIDGTDILQCSAKELYEIRTLFGVLFQDGALFGSMNIYDNTAFPLREHTKKSESEIRKIVMEKLDLVGMPNDGHKFPGEISGGMRKRAGLARALVLDPEIILCDEPDSGLDPVRTAYLSQLLIDINAQIDATVLIVTHNINIARTVPDNMGMLFRKQLVMFGPREVLLTSEEPVVKQFLNGRRIGPIGMSEEKDEATAAAEQALVDAGQHDGGVEEIEGVPPQLQATPGMPERKAVARRKARVREILHTLPPAAQAAILEELDRDQPQLSAPTTQTAATAPVENYDDSPTGVIEVPKQA
notes: MceG, ATPase of the MCE ABC transporters, Mycobacterium smegmatis, locus MSMEG_1366; endogenous protein; printed residue numbers run to 360 (residues 1, 256-280 and 326-360 not modelled); also called GFP-tagged MceG; MceG ATPase; not shown: eGFP, C-terminal, kept
stoichiometry N: 2
